First the molecules themselves.
T1: A. baumannii F1Fo-ATP synthase γ-subunit (Acinetobacter baumannii ATCC 17978 …, UniProt A3M143 1-289)
T1 construct: ATP synthase subunit gamma, Acinetobacter baumannii ATCC 17978; source: endogenous, A. baumannii ATCC 17978 membranes
T1 sequence (looked up): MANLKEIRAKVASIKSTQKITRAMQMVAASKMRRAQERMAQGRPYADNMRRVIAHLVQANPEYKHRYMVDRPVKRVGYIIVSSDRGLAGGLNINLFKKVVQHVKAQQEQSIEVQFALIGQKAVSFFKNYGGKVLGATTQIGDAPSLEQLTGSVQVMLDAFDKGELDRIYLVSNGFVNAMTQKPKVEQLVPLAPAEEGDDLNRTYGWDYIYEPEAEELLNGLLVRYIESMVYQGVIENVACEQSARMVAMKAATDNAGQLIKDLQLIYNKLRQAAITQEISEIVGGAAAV

B1: A. baumannii F1Fo-ATP synthase β-subunit, StrepII-tagged (natural protein, Acinetobacter baumannii, UniProt A3M144 1-464, looked up)
chain: MSSGRIIQIIGAVIDVEFERTSVPKIYDALQVDGTETTLEVQQQLGDGVVRTIAMGSTEGLKRGLTVTSTNAPISVPVGTATLGRIMDVLGRPIDEAGPVATEERLPIHRQAPSYAEQAASTDLLETGIKVIDLLCPFAKGGKVGLFGGAGVGKTVNMMELINNIAKAHSGLSVFAGVGERTREGNDFYHEMKDSNVLDKVAMVYGQMNEPPGNRLRVALTGLTMAEYFRDEKDENGKGRDVLLFVDNIYRYTLAGTEVSALLGRMPSAVGYQPTLAEEMGVLQERITSTKSGSITSIQAVYVPADDLTDPSPATTFAHLDATVVLSRDIASSGIYPAIDPLDSTSRQLDPLVVGQEHYEIARAVQNVLQRYKELKDIIAILGMDELAEEDKLVVYRARKIQRFFSQPFHVAEVFTGAPGKLVPLKETIRGFKGLLAGEYDHIPEQAFYMVGGIDEVIAKAEKL
notes: ATP synthase subunit beta, Acinetobacter baumannii; gene at 3815454-3814060 of GenBank CP053098.1, amplified from genomic DNA with a StrepII tag coded at the 5' end; Three copies stand in the complex; also called βDP*; βTP; not shown: StrepII, N-terminal, kept
B2: A. baumannii F1Fo-ATP synthase c-subunit (c10 ring) (natural protein, UniProt A3M139 1-81, looked up)
chain: MELTLGLVAIASAILIAFGALGTAIGFGLLGGRFLEAVARQPELAPQLQTRMFLIAGLLDAVPMIGVGIGLFFIFANPFVG
notes: ATP synthase subunit c, Acinetobacter baumannii ATCC 17978; also called c-ring; source: endogenous, A. baumannii ATCC 17978 membranes; copies: 10
B3: A. baumannii F1Fo-ATP synthase ε-subunit (natural protein, UniProt A3M145 1-139, looked up)
chain: MATMQCDVVSVKESIYSGAVTMLIAKGAGGELGILPGHAPLVTLLQPGPIRVLLENGTEEIVYVSGGVLEVQPHVVTVLADTAIRADNLDEAAILEARKNAEQLLANQKSDLDSAAALAALAETAAQLETIRKIKNRAQ
notes: ATP synthase subunit epsilon, Acinetobacter baumannii ATCC 17978; also called subunit ε; source: endogenous, A. baumannii ATCC 17978 membranes

What all share (assay): cryo-EM structure; single-particle cryo-EM of the whole F1Fo-ATP synthase purified from A. baumannii membranes via the StrepII tag on β and reconstituted into peptidiscs; three rotational states; buffer A (50 mM Hepes pH 6.8, 150 mM KCl, 5 mM MgCl2) without detergent
Data set [1] deals with T2, A. baumannii F1Fo-ATP synthase α-subunit (Acinetobacter baumannii ATCC 17978 …, UniProt A3M142 1-514).
T2 construct: ATP synthase subunit alpha, Acinetobacter baumannii ATCC 17978; Three copies stand in the complex (α3β3γδεab2c10); also called αDP; αE; source: endogenous, A. baumannii ATCC 17978 membranes
T2 sequence (A3M142 whole entry): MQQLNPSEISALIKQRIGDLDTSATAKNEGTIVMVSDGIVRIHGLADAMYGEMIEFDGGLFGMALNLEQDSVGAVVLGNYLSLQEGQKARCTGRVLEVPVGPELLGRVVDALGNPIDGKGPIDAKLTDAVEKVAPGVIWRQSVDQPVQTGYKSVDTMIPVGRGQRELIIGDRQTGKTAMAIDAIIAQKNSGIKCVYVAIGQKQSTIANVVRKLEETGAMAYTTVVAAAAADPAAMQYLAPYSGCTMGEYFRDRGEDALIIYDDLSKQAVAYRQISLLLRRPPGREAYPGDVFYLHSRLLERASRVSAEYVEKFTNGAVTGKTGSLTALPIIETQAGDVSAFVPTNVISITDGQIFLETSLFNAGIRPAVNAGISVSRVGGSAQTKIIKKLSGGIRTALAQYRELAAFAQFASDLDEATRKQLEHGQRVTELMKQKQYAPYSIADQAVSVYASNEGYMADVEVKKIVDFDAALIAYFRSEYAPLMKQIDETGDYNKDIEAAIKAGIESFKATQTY
The note with it: both partners purified.

Data set [2] addresses T3, A. baumannii F1Fo-ATP synthase a-subunit (Acinetobacter baumannii ATCC 17978 …, UniProt A3M137 1-291).
T3 construct: ATP synthase subunit a, Acinetobacter baumannii ATCC 17978; S5A; also called proton-conducting a-subunit; source: endogenous, A. baumannii ATCC 17978 membranes
The note with it: both partners purified.

Data set [3] deals with the molecule itself.
The target of data set [4] is B1. The note with it: both partners purified.
The target of data set [5] is T1, A. baumannii F1Fo-ATP synthase γ-subunit. The note with it: both partners purified.

T3 sequence (A3M137 whole entry): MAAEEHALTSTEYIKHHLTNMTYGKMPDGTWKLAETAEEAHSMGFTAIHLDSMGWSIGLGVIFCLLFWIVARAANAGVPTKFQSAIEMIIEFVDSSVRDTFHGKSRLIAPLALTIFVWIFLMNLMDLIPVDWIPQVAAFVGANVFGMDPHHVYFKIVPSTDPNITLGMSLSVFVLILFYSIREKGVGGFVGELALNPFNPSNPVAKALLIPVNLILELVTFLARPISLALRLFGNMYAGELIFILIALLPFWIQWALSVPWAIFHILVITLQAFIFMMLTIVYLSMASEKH

As for B1, the binding result in data set [1] is “binds”.

As for B2, the binding result in data set [2] is “binds”. For the same molecule, the “stoichiometry N” value in data set [3] stood at 10.

In the case of B3, the binding result in data set [1], in data set [4] and in data set [5] was “binds” in each case.

In general, stoichiometry N refers to a count of units in the complex or per binding partner.

The record behind these values is PMC8849298, “Structure of ATP synthase from ESKAPE pathogen Acinetobacter baumannii” (Science Advances, 2022).
